Test results: the supplement of paper PMC5998384

Tests used:
[1] = test system: HeLa Kyoto; assay: thermal stability score vs G1/S (z-score of summed log2 fold changes over temperatures); higher = more thermally stable than in G1/S
[2] = test system: HeLa Kyoto; assay: melting temperature (median over replicates), in situ; higher = more thermally stable
[3] = test system: HeLa Kyoto; assay: solubility in G1/S (NP-40 vs SDS abundance) (log2 ratio); higher = more soluble; details: cell cycle stage: G1/S
[4] = test system: HeLa Kyoto; assay: solubility change mitosis vs G1/S (difference of NP-40 vs SDS log2 ratios) (log2 ratio difference); higher = more soluble in mitosis
[5] = cell cycle stage: early G1 (4.5 h after nocodazole release)
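Wherever melting temperature (median over replicates), in situ is given: HeLa Kyoto cells synchronized by double thymidine or nocodazole block, proteins quantified by TMT10plex mass spectrometry, three independent biological replicates.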
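Wherever solubility change mitosis vs G1/S (difference of NP-40 vs SDS log2 ratios) is given: synchronized HeLa Kyoto cells (double thymidine block for G1/S, nocodazole release for mitosis), protein amounts in NP-40 versus SDS lysates quantified by mass spectrometry, three biological replicates.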
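Wherever solubility in G1/S (NP-40 vs SDS abundance) is given: HeLa Kyoto cells arrested at G1/S by double thymidine block, proteins quantified by TMT10plex mass spectrometry in mild NP-40 versus SDS extracts, three biological replicates.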
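Wherever thermal stability score vs G1/S (z-score of summed log2 fold changes over temperatures) is given: synchronized HeLa Kyoto cells, proteins quantified by TMT10plex mass spectrometry, three biological replicates, mitosis taken 0.5 h after nocodazole release, G1/S directly after double thymidine block.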

Row | Sequence | thermal stability score [1, 5] | thermal stability score ([1]; cell cycle stage: mitosis) | melting temperature ([2]; cell cycle stage: G1/S) | melting temperature ([2]; cell cycle stage: mitosis) | solubility in G1/S (log2) [3] | solubility change mitosis (log2) [4]
1 | MAGAASPCANGCGPGAPSDAEVLHLCRSLEVGTVMTLFYSKKSQRPERKTFQVKLETRQITWSRGADKIEGAIDIREIKEIRPGKTSRDFDRYQEDPAFRPDQSHCFVILYGMEFRLKTLSLQATSEDEVNMWIKGLTWLMEDTLQAPTPLQIERWLRKQFYSVDRNREDRISAKDLKNMLSQVNYRVPNMRFLRERLTDLEQRSGDITYGQFAQLYRSLMYSAQKTMDLPFLEASTLRAGERPELCRVSLPEFQQFLLDYQGELWAVDRLQVQEFMLSFLRDPLREIEEPYFFLDEFVTFLFSKENSVWNSQLDAVCPDTMNNPLSHYWISSSHNTYLTGDQFSSESSLEAYARCLRMGCRCIELDCWDGPDGMPVIYHGHTLTTKIKFSDVLHTIKEHAFVASEYPVILSIEDHCSIAQQRNMAQYFKKVLGDTLLTKPVEISADGLPSPNQLKRKILIKHKKLAEGSAYEEVPTSMMYSENDISNSIKNGILYLEDPVNHEWYPHYFVLTSSKIYYSEETSSDQGNEDEEEPKEVSSSTELHSNEKWFHGKLGAGRDGRHIAERLLTEYCIETGAPDGSFLVRESETFVGDYTLSFWRNGKVQHCRIHSRQDAGTPKFFLTDNLVFDSLYDLITHYQQVPLRCNEFEMRLSEPVPQTNAHESKEWYHASLTRAQAEHMLMRVPRDGAFLVRKRNEPNSYAISFRAEGKIKHCRVQQEGQTVMLGNSEFDSLVDLISYYEKHPLYRKMKLRYPINEEALEKIGTAEPDYGALYEGRNPGFYVEANPMPTFKCAVKALFDYKAQREDELTFIKSAIIQNVEKQEGGWWRGDYGGKKQLWFPSNYVEEMVNPVALEPEREHLDENSPLGDLLRGVLDVPACQIAIRPEGKNNRLFVFSISMASVAHWSLDVAADSQEELQDWVKKIREVAQTADARLTEGKIMERRKKIALELSELVVYCRPVPFDEEKIGTERACYRDMSSFPETKAEKYVNKAKGKKFLQYNRLQLSRIYPKGQRLDSSNYDPLPMWICGSQLVALNFQTPDKPMQMNQALFMTGRHCGYVLQPSTMRDEAFDPFDKSSLRGLEPCAISIEVLGARHLPKNGRGIVCPFVEIEVAGAEYDSTKQKTEFVVDNGLNPVWPAKPFHFQISNPEFAFLRFVVYEEDMFSDQNFLAQATFPVKGLKTGYRAVPLKNNYSEDLELASLLIKIDIFPAKENGDLSPFSGTSLRERGSDASGQLFHGRAREGSFESRYQQPFEDFRISQEHLADHFDSRERRAPRRTRVNGDNRL [PLCG1] | -0.13 | -0.0513 | 50.2 °C | 50.2 °C | -0.111 | -0.123
2 | MVKQIESKTAFQEALDAAGDKLVVVDFSATWCGPCKMIKPFFHSLSEKYSNVIFLEVDVDDCQDVASECEVKCMPTFQFFKKGQKVGEFSGANKEKLEATINELV [TXN] | -0.802 | -2.72 | 57.3 °C | 58.1 °C | 0.255 | -0.04
3 | MSNPFAHLAEPLDPVQPGKKFFNLNKLEDSRYGRLPFSIRVLLEAAIRNCDEFLVKKQDIENILHWNVTQHKNIEVPFKPARVILQDFTGVPAVVDFAAMRDAVKKLGGDPEKINPVCPADLVIDHSIQVDFNRRADSLQKNQDLEFERNRERFEFLKWGSQAFHNMRIIPPGSGIIHQVNLEYLARVVFDQDGYYYPDSLVGTDSHTTMIDGLGILGWGVGGIEAEAVMLGQPISMVLPQVIGYRLMGKPHPLVTSTDIVLTITKHLRQVGVVGKFVEFFGPGVAQLSIADRATIANMCPEYGATAAFFPVDEVSITYLVQTGRDEEKLKYIKKYLQAVGMFRDFNDPSQDPDFTQVVELDLKTVVPCCSGPKRPQDKVAVSDMKKDFESCLGAKQGFKGFQVAPEHHNDHKTFIYDNTEFTLAHGSVVIAAITSCTNTSNPSVMLGAGLLAKKAVDAGLNVMPYIKTSLSPGSGVVTYYLQESGVMPYLSQLGFDVVGYGCMTCIGNSGPLPEPVVEAITQGDLVAVGVLSGNRNFEGRVHPNTRANYLASPPLVIAYAIAGTIRIDFEKEPLGVNAKGQQVFLKDIWPTRDEIQAVERQYVIPGMFKEVYQKIETVNESWNALATPSDKLFFWNSKSTYIKSPPFFENLTLDLQPPKSIVDAYVLLNLGDSVTTDHISPAGNIARNSPAARYLTNRGLTPREFNSYGSRRGNDAVMARGTFANIRLLNRFLNKQAPQTIHLPSGEILDVFDAAERYQQAGLPLIVLAGKEYGAGSSRDWAAKGPFLLGIKAVLAESYERIHRSNLVGMGVIPLEYLPGENADALGLTGQERYTIIIPENLKPQMKVQVKLDTGKTFQAVMRFDTDVELTYFLNGGILNYMIRKMAK [ACO1] | -1.5 | -0.466 | 54 °C | 53.1 °C | -0.0477 | -0.178
4 | MARKLSVILILTFALSVTNPLHELKAAAFPQTTEKISPNWESGINVDLAISTRQYHLQQLFYRYGENNSLSVEGFRKLLQNIGIDKIKRIHIHHDHDHHSDHEHHSDHERHSDHEHHSEHEHHSDHDHHSHHNHAASGKNKRKALCPDHDSDSSGKDPRNSQGKGAHRPEHASGRRNVKDSVSASEVTSTVYNTVSEGTHFLETIETPRPGKLFPKDVSSSTPPSVTSKSRVSRLAGRKTNESVSEPRKGFMYSRNTNENPQECFNASKLLTSHGMGIQVPLNATEFNYLCPAIINQIDARSCLIHTSEKKAEIPPKTYSLQIAWVGGFIAISIISFLSLLGVILVPLMNRVFFKFLLSFLVALAVGTLSGDAFLHLLPHSHASHHHSHSHEEPAMEMKRGPLFSHLSSQNIEESAYFDSTWKGLTALGGLYFMFLVEHVLTLIKQFKDKKKKNQKKPENDDDVEIKKQLSKYESQLSTNEEKVDTDDRTEGYLRADSQEPSHFDSQQPAVLEEEEVMIAHAHPQEVYNEYVPRGCKNKCHSHFHDTLGQSDDLIHHHHDYHHILHHHHHQNHHPHSHSQRYSREELKDAGVATLAWMVIMGDGLHNFSDGLAIGAAFTEGLSSGLSTSVAVFCHELPHELGDFAVLLKAGMTVKQAVLYNALSAMLAYLGMATGIFIGHYAENVSMWIFALTAGLFMYVALVDMVPEMLHNDASDHGCSRWGYFFLQNAGMLLGFGIMLLISIFEHKIVFRINF [SLC39A6] | 0.915 | -0.208 |  | 57.4 °C | -0.161 | -0.0474
5 | MAAVSGLVRRPLREVSGLLKRRFHWTAPAALQVTVRDAINQGMDEELERDEKVFLLGEEVAQYDGAYKVSRGLWKKYGDKRIIDTPISEMGFAGIAVGAAMAGLRPICEFMTFNFSMQAIDQVINSAAKTYYMSGGLQPVPIVFRGPNGASAGVAAQHSQCFAAWYGHCPGLKVVSPWNSEDAKGLIKSAIRDNNPVVVLENELMYGVPFEFPPEAQSKDFLIPIGKAKIERQGTHITVVSHSRPVGHCLEAAAVLSKEGVECEVINMRTIRPMDMETIEASVMKTNHLVTVEGGWPQFGVGAEICARIMEGPAFNFLDAPAVRVTGADVPMPYAKILEDNSIPQVKDIIFAIKKTLNI [PDHB] | -1.24 | -2.38 | 51.7 °C | 51.4 °C | 0.196 | -0.117
6 | MRGEQGAAGARVLQFTNCRILRGGKLLREDLWVRGGRILDPEKLFFEERRVADERRDCGGRILAPGFIDVQINGGFGVDFSQATEDVGSGVALVARRILSHGVTSFCPTLVTSPPEVYHKVVPQIPVKSGGPHGAGVLGLHLEGPFISREKRGAHPEAHLRSFEADAFQDLLATYGPLDNVRIVTLAPELGRSHEVIRALTARGICVSLGHSVADLRAAEDAVWSGATFITHLFNAMLPFHHRDPGIVGLLTSDRLPAGRCIFYGMIADGTHTNPAALRIAHRAHPQGLVLVTDAIPALGLGNGRHTLGQQEVEVDGLTAYVAGTKTLSGSIAPMDVCVRHFLQATGCSMESALEAASLHPAQLLGLEKSKGTLDFGADADFVVLDDSLHVQATYISGELVWQADAARQ [AMDHD2] | -1.01 | -2.12 | 55.1 °C | 54.3 °C | -0.0483 | -0.0923
7 | MSSFGAGKTKEVIFSVEDGSVKMFLRGRPVPMMIPDELAPTYSLDTRSELPSCRLKLEWVYGYRGRDCRANLYLLPTGEIVYFVASVAVLYSVEEQRQRHYLGHNDDIKCLAIHPDMVTIATGQVAGTTKEGKPLPPHVRIWDSVSLSTLHVLGLGVFDRAVCCVGFSKSNGGNLLCAVDESNDHMLSVWDWAKETKVVDVKCSNEAVLVATFHPTDPTVLITCGKSHIYFWTLEGGSLSKRQGLFEKHEKPKYVLCVTFLEGGDVVTGDSGGNLYVWGKGGNRITQAVLGAHDGGVFGLCALRDGTLVSGGGRDRRVVLWGSDYSKLQEVEVPEDFGPVRTVAEGHGDTLYVGTTRNSILQGSVHTGFSLLVQGHVEELWGLATHPSRAQFVTCGQDKLVHLWSSDSHQPLWSRIIEDPARSAGFHPSGSVLAVGTVTGRWLLLDTETHDLVAIHTDGNEQISVVSFSPDGAYLAVGSHDNLVYVYTVDQGGRKVSRLGKCSGHSSFITHLDWAQDSSCFVTNSGDYEILYWDPATCKQITSADAVRNMEWATATCVLGFGVFGIWSEGADGTDINAVARSHDGKLLASADDFGKVHLFSYPCCQPRALSHKYGGHSSHVTNVAFLWDDSMALTTGGKDTSVLQWRVV [EML2] | -0.964 | -1.37 | 53.1 °C | 53.4 °C | -0.16 | -0.207
8 | MPSSPLRVAVVCSSNQNRSMEAHNILSKRGFSVRSFGTGTHVKLPGPAPDKPNVYDFKTTYDQMYNDLLRKDKELYTQNGILHMLDRNKRIKPRPERFQNCKDLFDLILTCEERVYDQVVEDLNSREQETCQPVHVVNVDIQDNHEEATLGAFLICELCQCIQHTEDMENEIDELLQEFEEKSGRTFLHTVCFY [SSU72] | 0.263 | -0.182 | 48.1 °C | 49.4 °C | 0.4 | -0.0234
9 | MLRRILQRTPGRVGSQGSDLDSSATPINTVDVNNESSSEGFICPQCMKSLGSADELFKHYEAVHDAGNDSGHGGESNLALKRDDVTLLRQEVQDLQASLKEEKWYSEELKKELEKYQGLQQQEAKPDGLVTDSSAELQSLEQQLEEAQTENFNIKQMKDLFEQKAAQLATEIADIKSKYDEERSLREAAEQKVTRLTEELNKEATVIQDLKTELLQRPGIEDVAVLKKELVQVQTLMDNMTLERERESEKLKDECKKLQSQYASSEATISQLRSELAKGPQEVAVYVQELQKLKSSVNELTQKNQTLTENLLKKEQDYTKLEEKHNEESVSKKNIQATLHQKDLDCQQLQSRLSASETSLHRIHVELSEKGEATQKLKEELSEVETKYQHLKAEFKQLQQQREEKEQHGLQLQSEINQLHSKLLETERQLGEAHGRLKEQRQLSSEKLMDKEQQVADLQLKLSRLEEQLKEKVTNSTELQHQLDKTKQQHQEQQALQQSTTAKLREAQNDLEQVLRQIGDKDQKIQNLEALLQKSKENISLLEKEREDLYAKIQAGEGETAVLNQLQEKNHTLQEQVTQLTEKLKNQSESHKQAQENLHDQVQEQKAHLRAAQDRVLSLETSVNELNSQLNESKEKVSQLDIQIKAKTELLLSAEAAKTAQRADLQNHLDTAQNALQDKQQELNKITTQLDQVTAKLQDKQEHCSQLESHLKEYKEKYLSLEQKTEELEGQIKKLEADSLEVKASKEQALQDLQQQRQLNTDLELRATELSKQLEMEKEIVSSTRLDLQKKSEALESIKQKLTKQEEEKKILKQDFETLSQETKIQHEELNNRIQTTVTELQKVKMEKEALMTELSTVKDKLSKVSDSLKNSKSEFEKENQKGKAAILDLEKTCKELKHQLQVQMENTLKEQKELKKSLEKEKEASHQLKLELNSMQEQLIQAQNTLKQNEKEEQQLQGNINELKQSSEQKKKQIEALQGELKIAVLQKTELENKLQQQLTQAAQELAAEKEKISVLQNNYEKSQETFKQLQSDFYGRESELLATRQDLKSVEEKLSLAQEDLISNRNQIGNQNKLIQELKTAKATLEQDSAKKEQQLQERCKALQDIQKEKSLKEKELVNEKSKLAEIEEIKCRQEKEITKLNEELKSHKLESIKEITNLKDAKQLLIQQKLELQGKADSLKAAVEQEKRNQQILKDQVKKEEEELKKEFIEKEAKLHSEIKEKEVGMKKHEENEAKLTMQITALNENLGTVKKEWQSSQRRVSELEKQTDDLRGEIAVLEATVQNNQDERRALLERCLKGEGEIEKLQTKVLELQRKLDNTTAAVQELGRENQSLQIKHTQALNRKWAEDNEVQNCMACGKGFSVTVRRHHCRQCGNIFCAECSAKNALTPSSKKPVRVCDACFNDLQG [EEA1] | -3.01 | -4.2 | 57.3 °C | 58 °C | 0.678 | 0.0149
